Results as given in PMC9527590, “Functional analysis of the N‐terminal region of acetylxylan esterase from Caldanaerobacter subterraneus subsp. tengcongensis” (FEBS Open Bio, 2022).

Tests used:
[1] = SEC; analytical SEC, Superdex 75 Increase 10/300 GL; 100 μL of protein solution (1.0 mg·mL^−1); 20 mM Tris–HCl (pH 8.0), 150 mM NaCl; masses from a calibration standard; self-association, dimer to monomers
[2] = target: TTE^Δ110, TTE0866 with the N-terminal 110 residues truncated (Caldanaerobacter subterraneus subsp. tengcongensis); experiment: as above

Substance | percent dimer (SEC peak area) [1] | stoichiometry N [2]
TTE^Δ110, TTE0866 with the N-terminal 110 residues truncated | the dimer‐to‐monomer percentage of TTE^Δ110 was 20% and 80% | –
TTE^Δ110, TTE0866 with the N-terminal 110 residues truncated (domain or fragment) | – | 2
